Reference: article PMC3575510, “Antibiotic Inducibility of the mexXY Multidrug Efflux Operon of Pseudomonas aeruginosa: Involvement of the MexZ Anti-Repressor ArmZ” (PLoS ONE, 2013)

B1: unnamed (parent)
chain 1: MGNYIKPLSAGVALIASDSTWIEGKAIQQLQTTAELDGMCRVVGLPDLHPGRGYPVGAAFFSVGRFYPALVGNDIGCGMALWETGLALGKLSADKLEKRLGNLDLPLDETWSDCIEALDLPAREHWRALGTIGGGNHFAELQQVETVFDQAALHALGLDADRLQLLVHSGSRGLGQAILQEHVSLHGHAGLLDGSLEASAYLARHADALRFAEGNRQLIARRILERLRCDGLELLDINHNLVVPAQVDGVDGWLHRKGATPADQGVLVIPGSRGDYSYLVEPVPSAQSLFSLAHGAGRKWQRGECRERLAARFSVDQLGRTRLGSRVICGDRQLIYEEAPEAYKGIDSVVGALLEAGLLRLVARLKPVLTYKTRGECCR
chain 2: MARKTKEESQKTRDGILDAAERVFLEKGVGTTAMADLADAAGVSRGAVYGHYKNKIEVCLAMCDRAFGQIEVPDENARVPALDILLRAGMGFLRQCCEPGSVQRVLEILYLKCERSDENEPLLRRRELLEKQGQRFGLRQIRRAVERGELPARLDVELASIYLQSLWDGICGTLAWTERLRDDPWNRAERMFRAGLDSLRSSPYLLLADA

Variants of: B1
Assay: bacterial 2-hybrid assay (β-galactosidase activity in E. coli SU202)
Conditions: with partner chain of the complex shown; IPTG-induced cells; read off a plot

Going from chain 1 G76S to chain 1 G231D, the response rises from 470 Miller Units to 730 Miller Units.

Compared with chain 1 G252S, chain 1 P68S is lower in response: 700 Miller Units for the first, 610 Miller Units for the second.

Compared with chain 1 R216C, chain 1 R221Q is lower in response: 720 Miller Units for the first, 510 Miller Units for the second.

chain 1 R221W was tested, and the response was 680 Miller Units.
